Measured values reported in patent US20240293512A1 (HANMI PHARM, published 2024).
Bridge positions count the residues as written; N and C are the ends. Square brackets hold non-standard residues; d marks the D form. Ends that are not written are not given here. * marks the point of attachment. Acetyl(2-(4-imidazolyl)) = O=C(Cc1c[nH]cn1)*; Aib = CC(C)(N)C(=O)O

T1: human GIP receptor (human, UniProt P48546 22-466)
T1 sequence (looked up): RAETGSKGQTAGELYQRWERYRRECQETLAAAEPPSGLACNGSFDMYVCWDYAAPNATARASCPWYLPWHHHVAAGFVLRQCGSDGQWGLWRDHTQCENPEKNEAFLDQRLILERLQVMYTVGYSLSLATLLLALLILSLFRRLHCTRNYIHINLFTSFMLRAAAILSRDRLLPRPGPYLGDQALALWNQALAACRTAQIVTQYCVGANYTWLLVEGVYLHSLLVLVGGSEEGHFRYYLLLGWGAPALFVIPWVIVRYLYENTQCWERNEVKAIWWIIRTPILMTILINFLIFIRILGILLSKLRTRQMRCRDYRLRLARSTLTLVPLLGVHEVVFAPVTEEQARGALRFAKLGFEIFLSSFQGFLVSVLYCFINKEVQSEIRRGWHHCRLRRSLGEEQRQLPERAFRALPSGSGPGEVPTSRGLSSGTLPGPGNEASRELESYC


Assays:
Experiment in all cases: cell-based or functional assay
human GIP receptor = target: T1, human GIP receptor
human GCG receptor = human GCG receptor (human, UniProt P47871 26-477)
human GLP-1 receptor = human GLP-1 receptor (human, UniProt P43220 24-463)

Chain of human GCG receptor (P47871 26-477): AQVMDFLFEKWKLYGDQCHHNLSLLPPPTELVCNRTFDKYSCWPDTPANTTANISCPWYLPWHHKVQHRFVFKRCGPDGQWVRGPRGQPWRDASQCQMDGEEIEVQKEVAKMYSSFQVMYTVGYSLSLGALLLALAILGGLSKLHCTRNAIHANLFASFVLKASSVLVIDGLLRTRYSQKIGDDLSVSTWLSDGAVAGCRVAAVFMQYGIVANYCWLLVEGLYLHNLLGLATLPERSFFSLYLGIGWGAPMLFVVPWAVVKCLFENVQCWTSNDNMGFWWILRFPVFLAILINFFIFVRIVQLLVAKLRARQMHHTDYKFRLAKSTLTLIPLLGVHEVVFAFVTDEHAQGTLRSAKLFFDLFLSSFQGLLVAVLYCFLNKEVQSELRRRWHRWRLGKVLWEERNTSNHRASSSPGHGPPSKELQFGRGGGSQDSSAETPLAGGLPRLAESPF

Binder	In vitro activity compared with native peptide (%) vs GIP (cAMP EC50) (human GIP receptor) [%]	In vitro activity compared with native peptide (%) vs Glucagon (cAMP EC50) (human GCG receptor) [%]	In vitro activity compared with native peptide (%) vs GLP-1 (cAMP EC50) (human GLP-1 receptor) [%]
H[Aib]QGTFTSDVSSYLLGQAAKQFIAWLVKGGGPSSGAPPPSC [triple agonist of SEQ ID NO: 3]	< 0.1	< 0.1	1.8
[Acetyl(2-(4-imidazolyl))]GQGTFTSDLSKQMDSEAQQLFIEWLKNGGPSSGAPPPSHG [triple agonist of SEQ ID NO: 16]	< 0.1	< 0.1	2.1
[Acetyl(2-(4-imidazolyl))]GEGTFISDYSIQLDEIAVQDFVEWLLAQKPSSGAPPPSHG [triple agonist of SEQ ID NO: 13]	< 0.1	< 0.1	< 0.1
H[Aib]QGTFTSDYSKYLDEKACKDFVQWLLDGGPSSGAPPPS (bridge 16-20) [triple agonist of SEQ ID NO: 32]	8.8	1.7	151
Y[Aib]QGTFTSDYSKCLDEKRAKEFVQWLLDHHPSSGQPPPS (bridge 16-20) [triple agonist of SEQ ID NO: 22]	59.7	140	20.1
[Acetyl(2-(4-imidazolyl))]GQGTFTSDLSIQYEEEAQQDFVEWLKDTGPSSGAPPPSHG [triple agonist of SEQ ID NO: 20]	< 0.1	< 0.1	< 0.1
H[Aib]QGTFTSDCSKYLDERAAQDFVQWLLDGGPSSGAPPPS [triple agonist of SEQ ID NO: 25]	< 0.1	0.1	82.6
H[Aib]QGTFTSDYSKYLDEKACKEFVQWLLAQ (bridge 16-20) [triple agonist of SEQ ID NO: 31]	2.4	2.2	135
H[Aib]QGTFTSDYSKYLDERACQDFVQWLLDQGGPSSGAPPPS [triple agonist of SEQ ID NO: 27]	0.9	0.8	83.1
[Acetyl(2-(4-imidazolyl))]GQGTFTSDLSIQYDSEHQRDFIEWLKDTGPSSGAPPPSHG [triple agonist of SEQ ID NO: 19]	< 0.1	< 0.1	< 0.1
[Acetyl(2-(4-imidazolyl))]GQGTFTSDYSIQLDEIAVRDFVEWLKNGGPSSGAPPPSHG [triple agonist of SEQ ID NO: 14]	< 0.1	< 0.1	28
[Acetyl(2-(4-imidazolyl))]GQGTFTSDLSKQMDEERAREFIEWLLAQKPSSGAPPPSHG [triple agonist of SEQ ID NO: 17]	< 0.1	< 0.1	0.2
Y[Aib]QGTFTSDYSKYLDECRAKEFVQWLKNGGPSSGAPPPS (bridge 16-20) [triple agonist of SEQ ID NO: 24]	< 0.1	9.3	41.2
H[Aib]QGTFTSDYSKYLDEKRAQEFVCWLLAQKGKKNDWKHNIT [triple agonist of SEQ ID NO: 28]	< 0.1	1.6	17.2
H[Aib]QGTFTSDCSKYLDSRAAQDFVQWLLDGGPSSGAPPPS [triple agonist of SEQ ID NO: 26]	< 0.1	0.2	64.5
H[Aib]QGTFTSDYSIAMDEIHQKDFVNWLLAQKC (bridge 16-20) [triple agonist of SEQ ID NO: 33]	10.4	< 0.1	24.5
[Acetyl(2-(4-imidazolyl))]GQGTFTSDLSKQMDSERAREFIEWLKNTGPSSGAPPPSHG [triple agonist of SEQ ID NO: 18]	< 0.1	< 0.1	< 0.1
Y[Aib]QGTFTSDYSKYLDECRAKEFVQWLLDHHPSSGQPPPS (bridge 16-20) [triple agonist of SEQ ID NO: 21]	22.7	267	17.8
H[Aib]QGTFTSDYSKYLDEKAAKEFVQWLLNTC (bridge 16-20) [triple agonist of SEQ ID NO: 29]	< 0.1	6	38.5
H[Aib]QGTFTSDYSKYLDEKAQKEFVQWLLDTC (bridge 16-20) [triple agonist of SEQ ID NO: 30]	0.8	0.7	142
H[Aib]QGTFTSDVSSYLDGQAQKEFIAWLVKGC [triple agonist of SEQ ID NO: 2]	< 0.1	< 0.1	5.9
Y[Aib]QGTFTSDYSKYLDECRAKEFVQWLLAQKGKKNDWKHNIT (bridge 16-20) [triple agonist of SEQ ID NO: 23]	< 0.1	9.3	4.01
